From patent publication US20110262366A1 come the findings set out here.

No end group written: not given here.

For experiment [1], the target named is endothelial cell receptor on HAEC (human aortic endothelial cells). In words: competition against 5% DPPE-GTKPPR microbubbles (competitor) on HAEC, static.
For experiment [2] the target is unchanged. Description: competition, 25 µM free TKPPR against TKPPR-beads (competitor) on HAEC, static, n = 11.
The target is the same in experiment [3]. In words: competition, 100 µM free TKPPR against TKPPR-beads (competitor) on HAEC, static, n = 11.
The target is the same in experiment [4]. Description: competition, 5 µM free TKPPR against 1% BRU-114 microbubbles (competitor) on HAEC, static.
For experiment [5] the target is unchanged. In words: competition, 10 µM free TKPPR against 1% BRU-114 microbubbles (competitor) on HAEC, static.
For experiment [6] the target is unchanged. In words: competition, 50 µM free TKPPR against 1% BRU-114 microbubbles (competitor) on HAEC, static.
The target is the same in experiment [7]. In words: competition, 50 µM free TKPPR against 5% BRU-114 microbubbles (competitor) on HAEC, static.
The target is the same in experiment [8]. Description: competition, 10 µM free TKPPR against 1% BRU-114 microbubbles (competitor) on HAEC, static. This is another data set of the same source.
Experiment [9] shares this target. Description: competition, 100 µM free TKPPR against 1% BRU-114 microbubbles (competitor) on HAEC, static.
For experiment [10] the target is unchanged. In words: competition, 2.5 µM free TKPPR against 1% BRU-114 microbubbles (competitor) on HAEC, static.
For experiment [11] the target is unchanged. In words: competition, 100 µM free TKPPR against 10% BRU-114 microbubbles (competitor) on HAEC, static.
The target of experiment [12] is endothelial cell receptor on RAEC (rabbit aortic endothelial cells). In words: competition, 100 µM free TKPPR against 5% DPPE-GTKPPR microbubbles (competitor) on RAEC, static.
In experiment [13] the target is endothelial cell receptor on HAEC (human aortic endothelial cells). In words: competition, free TKPPR 100 µM (head prints 100 µmol) against 5% DPPE-GTKPPR microbubbles (competitor) on HAEC, static.

As usually defined, the % Inhibition is the share of the control response that was lost under treatment. The low end stands for a weak effect, the high end for a strong effect. Take TKPPR-OH [TKPPR-OH (L-threonyl-L-lysyl-L-prolyl-L-prolyl-L-arginine)]: the % more bubbles bound in experiment [1] is 19%. For the same molecule, the results for the % Inhibition in [2] and in experiment [3] were 50.7% and 62%, respectively. In addition, the Bubbles Bound in presence of competitor was found to be 790 bubbles in experiment [4]; 10 bubbles in experiment [5]; 5 bubbles in [6]; 440 bubbles in [7]; 528 bubbles in experiment [8]; 4 bubbles in experiment [9]. Moreover, the Bubbles Bound in presence of competitor in experiment [10] was 1240 bubbles; in experiment [11], 399 bubbles; in experiment [13] it was 62 bubbles. In addition, in experiment [12], the RAEC bubbles bound in presence of competitor came to 21 bubbles.
